Variants at the floor of the assay were thinned out.
Experiments:
biotinyl-Phe-oxazolone = test: self-aminoacylation, catalytic enhancement (BFO) (fold over background); higher = more active; k-Seq, kA / k0A0; sequences stand for … in GGGAAUGGAUCCACAUCUACGAAUUC…UUCACUGCAGACUUGACGAAGCUG
Summary of the method: (§1)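 Each biotinyl-aminoacyl-oxazolone, at 2–1250 μM, was incubated with mutagenized RNA pools (0.43 μM) carrying a 21-nt variable region. The 50 μL reactions contained HEPES/NaCl/KCl/MgCl2/CaCl2 buffer with 5% acetonitrile at pH 6.9–7.0 and ran for 90 minutes at room temperature. After streptavidin capture, RNA was measured by qPCR in triplicate and by Illumina sequencing, and catalytic enhancement was calculated as median kA over the uncatalyzed rate from a pseudo-first-order fit of per-sequence fraction reacted.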

biotinyl-Ile-oxazolone = test: self-aminoacylation, catalytic enhancement (BIO) (fold over background); higher = more active; k-Seq, kA / k0A0; sequences stand for … in GGGAAUGGAUCCACAUCUACGAAUUC…UUCACUGCAGACUUGACGAAGCUG
Summary of the method: as §1

biotinyl-Met-oxazolone = test: self-aminoacylation, catalytic enhancement (BMO) (fold over background); higher = more active; k-Seq, kA / k0A0; sequences stand for … in GGGAAUGGAUCCACAUCUACGAAUUC…UUCACUGCAGACUUGACGAAGCUG
Summary of the method: as §1

biotinyl-Val-oxazolone = test: self-aminoacylation, catalytic enhancement (BVO) (fold over background); higher = more active; k-Seq, kA / k0A0; sequences stand for … in GGGAAUGGAUCCACAUCUACGAAUUC…UUCACUGCAGACUUGACGAAGCUG
Summary of the method: as §1

biotinyl-Leu-oxazolone = test: self-aminoacylation, catalytic enhancement (BLO) (fold over background); higher = more active; k-Seq, kA / k0A0; sequences stand for … in GGGAAUGGAUCCACAUCUACGAAUUC…UUCACUGCAGACUUGACGAAGCUG
Summary of the method: as §1

biotinyl-Trp-oxazolone = test: self-aminoacylation, catalytic enhancement (BWO) (fold over background); higher = more active; k-Seq, kA / k0A0; sequences stand for … in GGGAAUGGAUCCACAUCUACGAAUUC…UUCACUGCAGACUUGACGAAGCUG
Summary of the method: as §1

In the case of “AUUUGCCUAGGUCAUCGGGUG [Fam2.2 aminoacylation ribozyme variant]”, the self-aminoacylation (biotinyl-Phe-oxazolone) was 195, the self-aminoacylation (biotinyl-Ile-oxazolone) was 16 and the self-aminoacylation (biotinyl-Met-oxazolone) was 28. For the same sequence, the self-aminoacylation (biotinyl-Val-oxazolone) was 14.1, the self-aminoacylation (biotinyl-Leu-oxazolone) was 38.3 and the self-aminoacylation (biotinyl-Trp-oxazolone) was 24.6.

“CAACACUUCAAACAAUCGGUC [Fam1B.1 aminoacylation ribozyme variant]” gave a self-aminoacylation (biotinyl-Phe-oxazolone) of 78.2, a self-aminoacylation (biotinyl-Ile-oxazolone) of 1.36 and a self-aminoacylation (biotinyl-Met-oxazolone) of 1.84. The self-aminoacylation (biotinyl-Val-oxazolone) was 1.38, the self-aminoacylation (biotinyl-Leu-oxazolone) was 2.11 and the self-aminoacylation (biotinyl-Trp-oxazolone) was 38.2.

“CAACACUUCAAGCAAUCGGCC [Fam1B.1 aminoacylation ribozyme variant]” was tested, and the self-aminoacylation (biotinyl-Phe-oxazolone) was 4.12, the self-aminoacylation (biotinyl-Ile-oxazolone) was 2.57 and the self-aminoacylation (biotinyl-Met-oxazolone) was 2.64. The self-aminoacylation (biotinyl-Val-oxazolone) was 2.58, the self-aminoacylation (biotinyl-Leu-oxazolone) was 2.45 and the self-aminoacylation (biotinyl-Trp-oxazolone) was 3.87.

Sequence “CAACACUUCAAGCAAUCGGUC [Fam1B.1 aminoacylation ribozyme variant]” has a self-aminoacylation (biotinyl-Phe-oxazolone) of 43.1, a self-aminoacylation (biotinyl-Ile-oxazolone) of 1.13 and a self-aminoacylation (biotinyl-Met-oxazolone) of 1.11. It also gave a self-aminoacylation (biotinyl-Val-oxazolone) of 1.27, a self-aminoacylation (biotinyl-Leu-oxazolone) of 1.55 and a self-aminoacylation (biotinyl-Trp-oxazolone) of 20.1.

With “CAACACUUCAAGCAUUCGGUC [Fam1B.1 aminoacylation ribozyme variant]” the self-aminoacylation (biotinyl-Phe-oxazolone) was 1.04, the self-aminoacylation (biotinyl-Ile-oxazolone) was 1.71 and the self-aminoacylation (biotinyl-Met-oxazolone) was 1.61. The self-aminoacylation (biotinyl-Val-oxazolone) was 1.76, the self-aminoacylation (biotinyl-Leu-oxazolone) was 1.58 and the self-aminoacylation (biotinyl-Trp-oxazolone) was 1.83.

With “CAACACUUCAAGGAAUCGGUC [Fam1B.1 aminoacylation ribozyme variant]” the self-aminoacylation (biotinyl-Phe-oxazolone) was 3.28, the self-aminoacylation (biotinyl-Ile-oxazolone) was 1.47 and the self-aminoacylation (biotinyl-Met-oxazolone) was 1.07. For the same sequence, the self-aminoacylation (biotinyl-Val-oxazolone) was 1.03, the self-aminoacylation (biotinyl-Leu-oxazolone) was 0.95 and the self-aminoacylation (biotinyl-Trp-oxazolone) was 3.1.

Work on “CAACACUUCAAGUAAUCGGUC [Fam1B.1 aminoacylation ribozyme variant]” yielded a self-aminoacylation (biotinyl-Phe-oxazolone) of 10.4, a self-aminoacylation (biotinyl-Ile-oxazolone) of 0.979 and a self-aminoacylation (biotinyl-Met-oxazolone) of 1.05. The self-aminoacylation (biotinyl-Val-oxazolone) was 0.899, the self-aminoacylation (biotinyl-Leu-oxazolone) was 1.19 and the self-aminoacylation (biotinyl-Trp-oxazolone) was 7.22.

With “CAACACUUCAAUCAAUCGGUC [Fam1B.1 aminoacylation ribozyme variant]” the self-aminoacylation (biotinyl-Phe-oxazolone) was 34.9, the self-aminoacylation (biotinyl-Ile-oxazolone) was 1.06 and the self-aminoacylation (biotinyl-Met-oxazolone) was 1.19. The self-aminoacylation (biotinyl-Val-oxazolone) was 1.05, the self-aminoacylation (biotinyl-Leu-oxazolone) was 1.66 and the self-aminoacylation (biotinyl-Trp-oxazolone) was 19.1.

Work on “CAACACUUCCAGCAAUCGGUC [Fam1B.1 aminoacylation ribozyme variant]” yielded a self-aminoacylation (biotinyl-Phe-oxazolone) of 0.986, a self-aminoacylation (biotinyl-Ile-oxazolone) of 1.41 and a self-aminoacylation (biotinyl-Met-oxazolone) of 1.1. For the same sequence, the self-aminoacylation (biotinyl-Val-oxazolone) was 1.26, the self-aminoacylation (biotinyl-Leu-oxazolone) was 1.1 and the self-aminoacylation (biotinyl-Trp-oxazolone) was 1.01.

“CAACUCCAAACAAUCGGUCUG [Fam1A.1 aminoacylation ribozyme variant]” gave a self-aminoacylation (biotinyl-Phe-oxazolone) of 6.95, a self-aminoacylation (biotinyl-Ile-oxazolone) of 1.31 and a self-aminoacylation (biotinyl-Met-oxazolone) of 1.36. It also gave a self-aminoacylation (biotinyl-Val-oxazolone) of 1.14, a self-aminoacylation (biotinyl-Leu-oxazolone) of 1.1 and a self-aminoacylation (biotinyl-Trp-oxazolone) of 3.05.

Work on “CAACUCUUCAAGCAAUCGGUC [Fam1B.1 aminoacylation ribozyme variant]” yielded a self-aminoacylation (biotinyl-Phe-oxazolone) of 9.86, a self-aminoacylation (biotinyl-Ile-oxazolone) of 1.05 and a self-aminoacylation (biotinyl-Met-oxazolone) of 1.16. It also gave a self-aminoacylation (biotinyl-Val-oxazolone) of 1.04, a self-aminoacylation (biotinyl-Leu-oxazolone) of 1.33 and a self-aminoacylation (biotinyl-Trp-oxazolone) of 6.16.

“CAACUUCAAACAAUCGGUGUG [Fam1A.1 aminoacylation ribozyme variant]” gave a self-aminoacylation (biotinyl-Phe-oxazolone) of 27.3, a self-aminoacylation (biotinyl-Ile-oxazolone) of 1.92 and a self-aminoacylation (biotinyl-Met-oxazolone) of 2.15. For the same sequence, the self-aminoacylation (biotinyl-Val-oxazolone) was 1.7, the self-aminoacylation (biotinyl-Leu-oxazolone) was 2.53 and the self-aminoacylation (biotinyl-Trp-oxazolone) was 16.5.

“CAACUUGAAACAAUCGGUCUG [Fam1A.1 aminoacylation ribozyme variant]” showed a self-aminoacylation (biotinyl-Phe-oxazolone) of 1.36, a self-aminoacylation (biotinyl-Ile-oxazolone) of 1.15 and a self-aminoacylation (biotinyl-Met-oxazolone) of 1.24. It also gave a self-aminoacylation (biotinyl-Val-oxazolone) of 1.11, a self-aminoacylation (biotinyl-Leu-oxazolone) of 1.36 and a self-aminoacylation (biotinyl-Trp-oxazolone) of 1.02.

With “CAAUUUCAAACAAUCGGUCUG [Fam1A.1 aminoacylation ribozyme variant]” the self-aminoacylation (biotinyl-Phe-oxazolone) was 9.15, the self-aminoacylation (biotinyl-Ile-oxazolone) was 1.01 and the self-aminoacylation (biotinyl-Met-oxazolone) was 1.02. For the same sequence, the self-aminoacylation (biotinyl-Val-oxazolone) was 0.869, the self-aminoacylation (biotinyl-Leu-oxazolone) was 0.903 and the self-aminoacylation (biotinyl-Trp-oxazolone) was 5.88.

For “CACCACUUCAAGCAAUCGGUC [Fam1B.1 aminoacylation ribozyme variant]”, the self-aminoacylation (biotinyl-Phe-oxazolone) was 40.5, the self-aminoacylation (biotinyl-Ile-oxazolone) was 1.11 and the self-aminoacylation (biotinyl-Met-oxazolone) was 1.33. The self-aminoacylation (biotinyl-Val-oxazolone) was 1.28, the self-aminoacylation (biotinyl-Leu-oxazolone) was 1.83 and the self-aminoacylation (biotinyl-Trp-oxazolone) was 21.8.

With “CAGAUUGCUAAUAGUCGCAAG [Fam3.1 aminoacylation ribozyme variant]” the self-aminoacylation (biotinyl-Phe-oxazolone) was 1.9, the self-aminoacylation (biotinyl-Ile-oxazolone) was 1.37 and the self-aminoacylation (biotinyl-Met-oxazolone) was 1.24. The self-aminoacylation (biotinyl-Val-oxazolone) was 1.28, the self-aminoacylation (biotinyl-Leu-oxazolone) was 1.23 and the self-aminoacylation (biotinyl-Trp-oxazolone) was 1.31.

Sequence “CAGUUUGCGAAUAGUCGCAAG [Fam3.1 aminoacylation ribozyme variant]” has a self-aminoacylation (biotinyl-Phe-oxazolone) of 5.57, a self-aminoacylation (biotinyl-Ile-oxazolone) of 1.79 and a self-aminoacylation (biotinyl-Met-oxazolone) of 1.93. The self-aminoacylation (biotinyl-Val-oxazolone) was 1.59, the self-aminoacylation (biotinyl-Leu-oxazolone) was 2.67 and the self-aminoacylation (biotinyl-Trp-oxazolone) was 2.

“CAGUUUGCUAAUAGUCGGAAG [Fam3.1 aminoacylation ribozyme variant]” was tested, and the self-aminoacylation (biotinyl-Phe-oxazolone) was 3.05, the self-aminoacylation (biotinyl-Ile-oxazolone) was 1.27 and the self-aminoacylation (biotinyl-Met-oxazolone) was 1.26. The self-aminoacylation (biotinyl-Val-oxazolone) was 1.35, the self-aminoacylation (biotinyl-Leu-oxazolone) was 1.11 and the self-aminoacylation (biotinyl-Trp-oxazolone) was 1.43.

“CAGUUUGCUAAUAGUCUCAAG [Fam3.1 aminoacylation ribozyme variant]” showed a self-aminoacylation (biotinyl-Phe-oxazolone) of 1.71, a self-aminoacylation (biotinyl-Ile-oxazolone) of 0.951 and a self-aminoacylation (biotinyl-Met-oxazolone) of 0.711. The self-aminoacylation (biotinyl-Val-oxazolone) was 0.829, the self-aminoacylation (biotinyl-Leu-oxazolone) was 1.09 and the self-aminoacylation (biotinyl-Trp-oxazolone) was 0.993.

For “CAGUUUGCUAAUAGUGGCAAG [Fam3.1 aminoacylation ribozyme variant]”, the self-aminoacylation (biotinyl-Phe-oxazolone) was 0.616, the self-aminoacylation (biotinyl-Ile-oxazolone) was 0.854 and the self-aminoacylation (biotinyl-Met-oxazolone) was 1.04. For the same sequence, the self-aminoacylation (biotinyl-Val-oxazolone) was 0.882, the self-aminoacylation (biotinyl-Leu-oxazolone) was 0.854 and the self-aminoacylation (biotinyl-Trp-oxazolone) was 0.985.

“CAGUUUGCUAAUCGUCGCAAG [Fam3.1 aminoacylation ribozyme variant]” showed a self-aminoacylation (biotinyl-Phe-oxazolone) of 0.994, a self-aminoacylation (biotinyl-Ile-oxazolone) of 0.971 and a self-aminoacylation (biotinyl-Met-oxazolone) of 0.993. For the same sequence, the self-aminoacylation (biotinyl-Val-oxazolone) was 1.07, the self-aminoacylation (biotinyl-Leu-oxazolone) was 1.32 and the self-aminoacylation (biotinyl-Trp-oxazolone) was 1.05.

Sequence “CAUUUUGCUAAUAGUCGCAAG [Fam3.1 aminoacylation ribozyme variant]” has a self-aminoacylation (biotinyl-Phe-oxazolone) of 0.981, a self-aminoacylation (biotinyl-Ile-oxazolone) of 1.3 and a self-aminoacylation (biotinyl-Met-oxazolone) of 1.01. For the same sequence, the self-aminoacylation (biotinyl-Val-oxazolone) was 1.04, the self-aminoacylation (biotinyl-Leu-oxazolone) was 1.07 and the self-aminoacylation (biotinyl-Trp-oxazolone) was 0.635.

Work on “CCAAACUUCAAGCAGUCGGUC [Fam1B.1 aminoacylation ribozyme variant]” yielded a self-aminoacylation (biotinyl-Phe-oxazolone) of 0.806, a self-aminoacylation (biotinyl-Ile-oxazolone) of 1.29 and a self-aminoacylation (biotinyl-Met-oxazolone) of 1.01. It also gave a self-aminoacylation (biotinyl-Val-oxazolone) of 1.18, a self-aminoacylation (biotinyl-Leu-oxazolone) of 1.1 and a self-aminoacylation (biotinyl-Trp-oxazolone) of 0.793.

“CCAAACUUCAUGCAAUCGGUC [Fam1B.1 aminoacylation ribozyme variant]” gave a self-aminoacylation (biotinyl-Phe-oxazolone) of 0.558, a self-aminoacylation (biotinyl-Ile-oxazolone) of 0.959 and a self-aminoacylation (biotinyl-Met-oxazolone) of 0.703. For the same sequence, the self-aminoacylation (biotinyl-Val-oxazolone) was 1, the self-aminoacylation (biotinyl-Leu-oxazolone) was 0.864 and the self-aminoacylation (biotinyl-Trp-oxazolone) was 0.611.

Work on “CCACAAUUCAAGCAAUCAGUC [Fam1B.1 aminoacylation ribozyme variant]” yielded a self-aminoacylation (biotinyl-Phe-oxazolone) of 1.54, a self-aminoacylation (biotinyl-Ile-oxazolone) of 0.933 and a self-aminoacylation (biotinyl-Met-oxazolone) of 0.673. For the same sequence, the self-aminoacylation (biotinyl-Val-oxazolone) was 0.876, the self-aminoacylation (biotinyl-Leu-oxazolone) was 0.763 and the self-aminoacylation (biotinyl-Trp-oxazolone) was 0.762.

“CCACAAUUCAAGCAAUCGGUA [Fam1B.1 aminoacylation ribozyme variant]” gave a self-aminoacylation (biotinyl-Phe-oxazolone) of 1.33, a self-aminoacylation (biotinyl-Ile-oxazolone) of 1.26 and a self-aminoacylation (biotinyl-Met-oxazolone) of 1.19. The self-aminoacylation (biotinyl-Val-oxazolone) was 1.17, the self-aminoacylation (biotinyl-Leu-oxazolone) was 1.43 and the self-aminoacylation (biotinyl-Trp-oxazolone) was 1.13.
